We go through 2 molecules from PMC4338372 (FEBS Open Bio, 2015).

By Kd is commonly meant the concentration at which binding is half-saturated. Lower therefore signals higher affinity.

Assay [1] concerns the target ^15N-labeled SH3 domain of Hck (SH3Hck), GST tag cleaved (UniProt P08631 77-141, uniformly ^15N labeled). In words: NMR titration.
The target of assay [2] is 6His-tagged ELMO1 C-terminal domain with the polyproline motif (ELMO_(532–727)) (mouse, UniProt Q8BPU7 532-727). In words: ELISA.

Sequence of ^15N-labeled SH3 domain of Hck (SH3Hck), GST tag cleaved (P08631 77-141): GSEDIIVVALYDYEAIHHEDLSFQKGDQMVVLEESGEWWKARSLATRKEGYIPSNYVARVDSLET

For the molecule DLENIQIPDAPPPIPKEPSNYDFVYDCN [ELMO_(700–727) peptide (28 C-terminal amino-acids of ELMO1)], the dissociation constant Kd in assay [1] was determined as 1600 ± 300 µM.

B1: GST-fused SH3 domain of Hck (GST-SH3Hck) (domain or fragment)
chain: not shown
On to B1, for which the Kd in assay [2] was about 10 µM.
